{"source": "paper PMC3501478", "about": "“Structure of the Human Discs Large 1 PDZ2– Adenomatous Polyposis Coli Cytoskeletal Polarity Complex: Insight into Peptide Engagement and PDZ Clustering” (PLoS ONE, 2012)", "binders": {"B1": {"name": "APC C-terminal peptide RHSGSYLVTSV (residues 2833-2843) with N-terminal tetramethyl rhodamine (peptide)", "peptide": "{TMR}-RHSGSYLVTSV", "notes": "human Adenomatous Polyposis Coli (APC), C-terminal 11 residues 2833-2843 of the 2843 amino acid protein; Only residues 2838-2843 are seen in the electron density; the TMR fluorophore and the N-terminal five residues are not; also called APC peptide; TMR-APC peptide; source: synthetic peptide (Yale Keck Biotechnology Resource Laboratory), purified by HPLC"}}, "target": "T1, human Discs Large 1 (hDlg1) PDZ2 domain, residues 310-407 (human, UniProt Q12959 310-407)", "T1 construct": "N-terminal gly-ser cloning artifact left on the PDZ2 domain after thrombin cleavage of GST; human Discs Large 1 (Dlg1), PDZ2 domain, residues 310-407; synthetic gene with E. coli codon usage in pGEX-2T; In the final model chain A holds residues 310-406, with R310 modelled as alanine; also called hDlg PDZ2; source: E. coli BL21 DE3 pLysS, purified (Glutathione Sepharose, thrombin cleavage, SP …)", "T1 sequence (Q12959 other isoform, or with tags, fused parts or gaps)": "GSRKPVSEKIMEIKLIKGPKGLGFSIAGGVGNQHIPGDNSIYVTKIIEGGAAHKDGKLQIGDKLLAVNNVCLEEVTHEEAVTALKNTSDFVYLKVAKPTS", "test": "crystal structure; 1.4 mM Dlg1 PDZ2 incubated with 1.7 mM APC C-terminal peptide (1:1.2) in 100 mM NaCl, 25 mM Tris pH 7.0, 0.1% beta-mercaptoethanol; hanging drop, 200 mM sodium acetate, 100 mM sodium cacodylate pH 6.25, 28% PEG 8000, 20°C; space group P212121, 2.0 Å", "settings": "both partners purified", "note": "No end group written: not given here. TMR = tetramethyl rhodamine"}
{"binder": "B1", "values": [{"measurement": "binding result", "result": "binds"}]}
